This note sets out measurements from publication PMC5951591, “Transcriptional repression by ApiAP2 factors is central to chronic toxoplasmosis”.

Series [1] concerns the target T1, GST-AP2IV-4 (AP2 domain) (Toxoplasma gondii, UniProt S8FCP8 782-854). The series is described as follows: competition; 300x excess unlabeled against N1; did not compete; EMSA: 20 fmol probe, 50 ng protein, 6% PAGE, LightShift Chemiluminescent EMSA kit; buffer, salt, pH and temperature not stated. The note with it: protein: recombinant; tags: GST (N-terminal, pGEX4T3); label: none; blunt.

Series [2] deals with T1, GST-AP2IV-4 (AP2 domain). Kind of series: EMSA; 50 ng protein, 20 fmol probe; EMSA: 20 fmol probe, 50 ng protein, 6% PAGE, LightShift Chemiluminescent EMSA kit; buffer, salt, pH and temperature not stated. The note with it: protein: recombinant; tags: GST (N-terminal, pGEX4T3); label: 5'-biotin; blunt.
For series [3], the target named is T1, GST-AP2IV-4 (AP2 domain). The series is described as follows: competition; 300x excess unlabeled against N1; EMSA: 20 fmol probe, 50 ng protein, 6% PAGE, LightShift Chemiluminescent EMSA kit; buffer, salt, pH and temperature not stated. The note with it: protein: recombinant; tags: GST (N-terminal, pGEX4T3); label: none; blunt.

B1: PBM scrambled cold competitor (60 bp) (dsDNA)
DNA 1: TACCCTGCCTCTTGTAGTAGTAACGTAAAAGAGGTAACGTGGTCAAATGCGATCAGAGAT
DNA 2: ATCTCTGATCGCATTTGACCACGTTACCTCTTTTACGTTACTACTACAAGAGGCAGGGTA
On to B1, for which, in the series with GST-AP2IV-4 (AP2 domain) [1], the binding result is given as “no binding”.

B2: PBM motif validation probe (WT, 59 bp) (dsDNA)
DNA 1: TTTGTAATATACGCTCCACCGCGTGCACCCCCCTCGACATGCCCCCGTATTGCTGATCG
DNA 2: CGATCAGCAATACGGGGGCATGTCGAGGGGGGTGCACGCGGTGGAGCGTATATTACAAA
As for B2, the binding result with GST-AP2IV-4 (AP2 domain) [2] is “binds”.

B3: PBM motif validation, unlabeled poly(dC) competitor (dsDNA)
DNA 1: TTTGTAATATACGCTCCACCGCGTGCACCCCCCTCGACATGCCCCCGTATTGCTGATCG
DNA 2: CGATCAGCAATACGGGGGCATGTCGAGGGGGGTGCACGCGGTGGAGCGTATATTACAAA
In the case of B3, the binding result with GST-AP2IV-4 (AP2 domain) [3] was “binds”.
